Among the data in US20140227283A1 (INSERM INSTITUT NATIONAL DE LA SANTE ET DE LA RECHERCHE …, published 2014) are Response (RU), binding result and Kd values, retold here.

Assay [1] deals with human Axl extracellular domain fused to human Fc domain (hAxl-hFc protein; R&D system) (human) (UniProt P30530). The experiment in a line: SPR (BIAcore), hAxl-hFc on a CM5 chip; 3E3-E8 (666 nM) injected second, after Gas6 (625 nM), without removing Gas6.
Assay [2] shares this target. The experiment in a line: SPR (BIAcore), hAxl-hFc on a CM5 chip; 3E3-E8 (666 nM) injected first, before Gas6. A general note: In SPR one partner is held on a chip, and binding of the other changes the refractive index at the surface.
The next assay addresses T1, human Mer-Fc (human, UniProt Q12866 26-499, limits assumed).
T1 construct: also called h-Mer; not shown: Fc part
T1 sequence (looked up): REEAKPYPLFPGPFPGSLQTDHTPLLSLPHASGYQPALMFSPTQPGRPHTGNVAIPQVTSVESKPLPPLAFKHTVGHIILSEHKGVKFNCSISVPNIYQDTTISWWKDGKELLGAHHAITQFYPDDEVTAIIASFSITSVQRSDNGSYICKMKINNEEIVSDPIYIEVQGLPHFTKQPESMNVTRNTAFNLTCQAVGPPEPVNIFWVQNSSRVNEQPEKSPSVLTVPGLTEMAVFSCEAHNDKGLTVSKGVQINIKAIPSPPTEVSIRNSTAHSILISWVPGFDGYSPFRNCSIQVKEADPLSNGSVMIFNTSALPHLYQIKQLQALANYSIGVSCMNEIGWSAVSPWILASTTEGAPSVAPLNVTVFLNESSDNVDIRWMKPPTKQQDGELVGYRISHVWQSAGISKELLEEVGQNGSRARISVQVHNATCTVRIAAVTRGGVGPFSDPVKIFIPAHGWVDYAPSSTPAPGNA
The experiment in a line: ELISA on coated Fc fusion proteins. Here is the method: (§1) FIG. 1: ELISA experiments to investigate the affinity and the specificity of mouse monoclonal antibodies against hAxl. […] After washing, HRP-conjugated anti-mouse IgG was added.
(ELISA stands for enzyme-linked immunosorbent assay.)

The next assay addresses T2, Tyro-3-Fc (h-Tyro-3) (human, UniProt Q06418 41-428, limits assumed).
T2 construct: also called human Tyro-3-Fc; not shown: Fc part
T2 sequence (looked up): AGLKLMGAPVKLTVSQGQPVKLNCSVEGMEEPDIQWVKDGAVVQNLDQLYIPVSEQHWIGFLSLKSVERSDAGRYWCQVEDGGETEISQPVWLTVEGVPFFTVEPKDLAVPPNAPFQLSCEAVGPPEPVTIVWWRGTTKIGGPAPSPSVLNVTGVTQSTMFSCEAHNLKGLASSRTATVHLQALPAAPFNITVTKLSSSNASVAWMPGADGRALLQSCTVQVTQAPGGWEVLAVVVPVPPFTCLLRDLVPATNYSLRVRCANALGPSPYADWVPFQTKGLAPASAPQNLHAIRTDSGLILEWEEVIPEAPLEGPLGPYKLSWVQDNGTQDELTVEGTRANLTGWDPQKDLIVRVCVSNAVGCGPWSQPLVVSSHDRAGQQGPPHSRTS
The experiment in a line: ELISA on coated Fc fusion proteins. Here is the method: as §1

For the next assay, the target named is T3, mouse Axl-Fc (mouse, UniProt Q00993 20-443, limits assumed).
T3 construct: also called m-Axl; not shown: Fc part
T3 sequence (looked up): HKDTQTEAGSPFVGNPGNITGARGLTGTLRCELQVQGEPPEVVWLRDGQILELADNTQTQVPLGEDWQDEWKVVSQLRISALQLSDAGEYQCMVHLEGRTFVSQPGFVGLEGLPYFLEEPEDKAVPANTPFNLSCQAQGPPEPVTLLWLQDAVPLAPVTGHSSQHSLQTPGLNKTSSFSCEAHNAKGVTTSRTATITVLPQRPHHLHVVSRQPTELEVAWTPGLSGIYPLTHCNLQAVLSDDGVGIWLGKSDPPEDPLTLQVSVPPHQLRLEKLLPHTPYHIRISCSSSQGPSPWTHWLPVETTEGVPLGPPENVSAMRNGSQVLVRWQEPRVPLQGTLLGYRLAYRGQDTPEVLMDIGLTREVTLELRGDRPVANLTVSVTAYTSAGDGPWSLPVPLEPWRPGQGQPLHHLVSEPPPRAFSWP
The experiment in a line: ELISA on coated Fc fusion proteins. The method, then:
as §1

Assay [3] deals with T4, human Axl on the surface of cells (human, UniProt P30530 26-894).
T4 construct: whole, on cells; Endogenous Axl of the cell lines; also called cell surface Axl; Axl receptor
T4 sequence (looked up): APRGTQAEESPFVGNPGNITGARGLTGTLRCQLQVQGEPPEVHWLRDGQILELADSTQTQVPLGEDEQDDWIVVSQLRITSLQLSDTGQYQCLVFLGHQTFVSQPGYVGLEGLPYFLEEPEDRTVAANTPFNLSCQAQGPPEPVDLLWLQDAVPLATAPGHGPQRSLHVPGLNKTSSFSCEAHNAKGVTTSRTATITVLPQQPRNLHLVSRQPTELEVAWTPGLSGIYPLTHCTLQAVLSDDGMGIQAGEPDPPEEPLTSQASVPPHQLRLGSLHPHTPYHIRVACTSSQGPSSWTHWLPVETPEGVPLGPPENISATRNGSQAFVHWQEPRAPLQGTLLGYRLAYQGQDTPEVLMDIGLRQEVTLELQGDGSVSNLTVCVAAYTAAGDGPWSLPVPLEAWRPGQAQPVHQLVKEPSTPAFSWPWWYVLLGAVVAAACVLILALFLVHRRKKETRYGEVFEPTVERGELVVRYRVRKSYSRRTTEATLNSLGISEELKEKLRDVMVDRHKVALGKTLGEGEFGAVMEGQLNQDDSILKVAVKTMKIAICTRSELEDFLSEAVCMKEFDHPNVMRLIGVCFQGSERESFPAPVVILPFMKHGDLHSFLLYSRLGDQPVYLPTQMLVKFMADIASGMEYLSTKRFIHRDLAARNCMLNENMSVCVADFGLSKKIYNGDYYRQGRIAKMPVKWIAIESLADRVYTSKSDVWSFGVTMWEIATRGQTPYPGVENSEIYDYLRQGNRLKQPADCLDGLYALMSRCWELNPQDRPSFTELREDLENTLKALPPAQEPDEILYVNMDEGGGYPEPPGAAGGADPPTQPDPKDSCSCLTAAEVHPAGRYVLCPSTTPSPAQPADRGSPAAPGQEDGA
Nature of the assay: flow cytometry on A549 cells. The source says: FIG. 2: Flow cytometry analysis of cell surface Axl in A549.
On the technique in general: In flow cytometry, cells or beads pass a laser one at a time.

Assay [4] deals with human Axl extracellular domain fused to human Fc domain (hAxl-hFc protein; R&D system) (human) (UniProt P30530). Nature of the assay: SPR (BIAcore-3000), hAxl-hFc amine-coupled on a CM5 chip, mAb injected at 2 to 133 nM, 25° C., one-to-one Langmuir model.

B1: murine anti-Axl monoclonal antibody 3E3E8 (antibody, V domains shown)
VH: QVQLKESGPGLVAPSQSLSITCSVSGFSLTNYAVHWVRQPPGKGLEWLGVIWAGGSTNYNSALMSRLRISKDNSKSQVFFKMNSLQTDDTAMYYCARYYGSSLYPMDYWGQGTSVTVSS
VL: DIVMTQAAPSVPVTPGESVSISCRSSKSLLHSNGNTYLYWFLQRPGQSPQLLIYRMSNLASGVPDRFSGSGSGTVFTLRISGVEAEDVGVYYCMQHLEYPWTFGGGTELEIK
notes: also called mAb 3E3-E8; mAb 3E3E8
One may read the Kd as a measure of binding affinity in units of concentration. A lower Kd goes with higher affinity. On to B1, for which the results for the Response (RU) in assay [1] and in assay [2] were 2420 RU and 2500 RU, respectively. Further, the binding result in the assay with human Mer-Fc is given as “no binding”; with Tyro-3-Fc (h-Tyro-3) it was “no binding”; with mouse Axl-Fc it was “no binding”; in assay [3] it was “binds”. Besides, in assay [4], the Kd was 1.6 nM.
